Values belong to the molecule of their own block, whether it stands above or below them.
Experiments:
[1] = target: T1, human ADAMTS-4 lacking the C-terminal spacer domain (Homo sapiens, UniProt O75173); assay: ADAMTS-4 inhibition, bovine aggrecan digestion, anti-GELE Western blot; assay type: biochemical; settings: 0.5 nM ADAMTS-4, 1 mg/ml bovine aggrecan, 37° C., 2 h; read-out: Ki(app) ADAMTS-4
T1 construct: Recombinant human ADAMTS-4 lacking the C-terminal spacer domain; made in house
T1 sequence (O75173 213-685 limits assumed): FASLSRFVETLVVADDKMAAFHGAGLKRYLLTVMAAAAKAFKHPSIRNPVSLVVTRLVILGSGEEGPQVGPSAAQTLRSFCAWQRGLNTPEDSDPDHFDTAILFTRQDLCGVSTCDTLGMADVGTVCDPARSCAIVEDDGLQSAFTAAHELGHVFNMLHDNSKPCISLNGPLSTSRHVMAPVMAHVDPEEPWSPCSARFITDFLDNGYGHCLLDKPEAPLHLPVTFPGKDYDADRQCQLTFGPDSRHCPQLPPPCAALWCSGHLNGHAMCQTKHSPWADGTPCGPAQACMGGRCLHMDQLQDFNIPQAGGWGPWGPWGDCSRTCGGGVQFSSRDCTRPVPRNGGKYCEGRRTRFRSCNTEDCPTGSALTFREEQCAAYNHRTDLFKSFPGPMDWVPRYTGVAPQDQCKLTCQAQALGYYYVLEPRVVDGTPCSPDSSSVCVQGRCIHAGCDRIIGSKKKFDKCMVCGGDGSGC
Procedure: ADAMTS-4 lacking the spacer domain (0.5 nM) was incubated with N-TIMP-3 mutants at the concentration indicated for 30 min and then incubated with 1 mg/ml of bovine aggrecan at pH 7.5 for 2 h at 37° C. The reaction was terminated with 10 mM EDTA and samples were deglycosylated and subjected to Western blotting analysis using antibodies that recognise the fragments with the C-terminal GELE1480 as described by Little et al. The bands were quantified by densitometric analyses.
Recombinant human ADAMTS-4 lacking the C-terminal spacer domain was prepared and expressed as described (Kashimagi, M. et al. J. Biol. Chem. 279, 10109-10119, 2004), and bovine cartilage aggrecan was purified according to Hascall and Sajdesa (J. Biol. Chem. 244, 2384-2396, 1969). Antibody that recognized the fragment with the C-terminal GELE was described by Kashiwagi et al (2004). To examine the inhibition of ADAMTS-4 by (-1A) N-TIMP-3 and N-TIMP-3(T2G), 0.5 nM ADAMTS-4 was incubated with a various concentration of the inhibitor for 30 mins at room temperature and then with 1 mg/ml of bovine aggrecan at 37° C. for 2 h. […] The products were then precipated with 10 vol. of acetone and subjected to Western blotting analysis with the anti-GELE antibody as primary antibody and developed as described by Little et al. The staining intensity of the band was quantified by densitometric analysis.

[2] = test system: porcine articular cartilage; assay: IL-1α-stimulated porcine articular cartilage degradation, GAG release (DMMB); assay type: cell-based; settings: IL-1α 10 ng/ml, 3 days
Procedure: FIG. 7. Inhibition of IL-1a stimulated porcine articular cartilage degradation by N-terminal mutants of N-TIMP-3. Porcine articular cartilage pieces were cultured for three days. Cartilage was stimulated with IL-1α (10 ng/ml) with TIMPs at the concentrations indicated. Glycosaminoglycan (GAG) release in the media was measured by dimethyl methylene blue (DMMB).
Porcine articular cartilage from the metacarpophalangeal joints of 3-9 month old pigs is dissected into small shavings approximately 3 mm long and 2-3 mm wide. After dissection, the cartilage is allowed to rest for 24 h at 37° C. under 5% CO2 in DMEM containing penicillin-streptomycin, amphotericin B, and 5% fetal calf serum. The medium is then replaced with fresh media and the cartilage is rested for a further 24-48 h. […]
GAG released into the conditioned media is measured in duplicate using a modification of the dimethylmethylene blue (DMMB) assay as described in Farndale et al.. […] The % of total GAG released into the medium is calculated as follows: % of total GAG released=(total GAG in the medium)/(total GAG in the medium+total GAG remaining in the cartilage).
Porcine articular cartilage pieces were cultured for 3 days. […] Glycosaminoglycan (GAG) release in the media was measured by dimethyl methylene blue (DMMB).

[3] = test system: porcine articular cartilage; assay: Retinoic acid-stimulated porcine articular cartilage, GAG release; assay type: cell-based
Procedure: Porcine articular cartilage from the metacarpophalangeal joints of 3-9 month old pigs is dissected into small shavings approximately 3 mm long and 2-3 mm wide. After dissection, the cartilage is allowed to rest for 24 h at 37° C. under 5% CO2 in DMEM containing penicillin-streptomycin, amphotericin B, and 5% fetal calf serum. The medium is then replaced with fresh media and the cartilage is rested for a further 24-48 h. Each cartilage piece is then placed in one well of a round bottom 96-well plate with 200 μl of serum-free DMEM with or without 10-100 ng/ml IL-1α or 1 μM retinoic acid and various concentrations of each TIMP-3 mutant. After 3 days, all of the conditioned media are harvested and stored at −20° C. until use.
GAG released into the conditioned media is measured in duplicate using a modification of the dimethylmethylene blue (DMMB) assay as described in Farndale et al.. Shark chondroitin sulfate (0-2.62 μg) is used as standard. The % of total GAG released into the medium is calculated as follows: % of total GAG released=(total GAG in the medium)/(total GAG in the medium+total GAG remaining in the cartilage).

[4] = target: catalytic domain of membrane-type 1 MMP (MMP-14(CD)); settings: Table I; data taken from ref. 27; read-out: Ki(app) MMP-14(CD); cited from earlier work
[5] = test system: aggrecanase activity in IL-1α- and retinoic acid-stimulated cartilage; assay: Aggrecanase-generated aggrecan fragments in cartilage conditioned media, Western analysis; assay type: cell-based; settings: IL-1α- and retinoic acid-stimulated cartilage
Excerpt: Aggrecan fragments released into the conditioned medium are deglycosylated by digestion with chondroitinase ABC and keratanase and the samples are subjected to SDS/PAGE and Western blotting analysis as described by Little et al.. The primary antibodies used to detect aggrecanase-generated and MMP-generated aggrecan fragments are BC-3 and BC-14, respectively. Antigen-antibody complexes are detected by anti-mouse AP-linked donkey antibody and the AP substrate.
Conditioned media from the above experiments were analyzed by monoclonal antibodies that recognize either the aggrecanase-generated aggrecan neoepitope ARGSV or the MMP-generated aggrecan neoepitope FFGVG. In concordance with GAG release, there was an increase in the amount of aggrecanase-generated aggrecan fragments released upon treatment with either stimulus, but no MMP-generated fragments were detected.

Ki [1]: 18 nM
B1: -1A: N-TIMP-3 mutant with the addition of an N-terminal alanine extension (-1A) (protein)
chain: ACTCSPSHPQDAFCNSDIVIRAKVVGKKLVKEGPFGTLVYTIKQMKMYRGFTKMPHVQYIHTEASESLCGLKLEVNKYQYLLTGRVYDGKMYTGLCNFVERWDQLTLSQRKGLNYRYHLGCN

B2: N-TIMP-3: N-terminal inhibitory domain of TIMP-3 (residues 1 to 121), C-terminally His-tagged, wild-type (protein)
chain: CTCSPSHPQDAFCNSDIVIRAKVVGKKLVKEGPFGTLVYTIKQMKMYRGFTKMPHVQYIHTEASESLCGLKLEVNKYQYLLTGRVYDGKMYTGLCNFVERWDQLTLSQRKGLNYRYHLGCN
Inhibition of IL-1α stimulated cartilage degradation (GAG release) [2]: dose dependently inhibited degradation
Inhibition of retinoic acid-stimulated GAG release [3]: inhibited by N-TIMP-3, but to a lesser extent compared with the IL-1α-stimulated cartilage
Ki [4]: 0.8 ± 0.03 nM
Release of aggrecanase-generated aggrecan fragments ([5]; 0.05 μM): partially inhibited
Release of aggrecanase-generated aggrecan fragments ([5]; 0.1 μM): completely blocked

Source: patent US20090318342A1, “Compounds” (IMPERIAL INNOVATIONS LIMITED, priority 2005, published 2009)
